What is called Kd is the free concentration of one partner at which half of the binding sites on the other are occupied at equilibrium, for simple one-to-one binding.

Non-standard residues stand in square brackets, D forms with d. No end group written: not given here. pS = N[C@@H](COP(=O)(O)O)C(=O)O

We go through 2 molecules from article PMC6138665, “HUWE1 E3 ligase promotes PINK1/PARKIN-independent mitophagy by regulating AMBRA1 activation via IKKα” (Nature Communications, 2018).

Test [1] addresses LC3B protein (recombinant) (UniProt Q9GZQ8 1-120). The test is described as follows: ITC; peptides at 0.35 mM titrated into 0.015 mM LC3 and GABARAP proteins in 21 steps; MicroCal VP-ITC; 25 °C and 35 °C (the LC3B titrations of Fig. 4a at 35 °C); 50 mM Na2HPO4, 100 mM NaCl, pH 7.0; one-site binding model. The note with it: both partners purified.
The target in test [2] is T1, GABARAP protein (recombinant) (UniProt O95166 1-117).
T1 construct: GABARAP, one of the six mATG8 proteins; CSPs were mapped on PDB 1GNU; source: unlabelled or 15N-labelled
T1 sequence (O95166 whole entry): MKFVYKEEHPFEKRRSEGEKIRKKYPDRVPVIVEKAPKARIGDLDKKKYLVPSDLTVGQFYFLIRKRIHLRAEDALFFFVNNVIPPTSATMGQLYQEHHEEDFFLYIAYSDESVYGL
The test is described as above. The note with it: both partners purified.

B1: AMBRA1-LIR peptide, unphosphorylated (P0) (peptide)
peptide: EALNSGVEYYWDQLNET
notes: limits counted from S1014 as the fifth letter; also called unmodified AMBRA1-LIR; source: synthetic peptide, bought: GenScript
In the case of B1, the Kd in test [1] was > 100 µM; in test [2], ~40 µM.

B2: AMBRA1-LIR peptide, S1014 phosphorylated (P1) (peptide)
peptide: EALN[pS]GVEYYWDQLNET
notes: limits counted from S1014 as the fifth letter; also called S1014-phosphorylated AMBRA1-LIR peptide; source: synthetic peptide, bought: GenScript
Take B2: the Kd in test [1] came out at 53 µM; in test [2] it was 21 µM.
